Patent CN117024592A (WEST CHINA HOSPITAL SICHUAN UNIV, dated 2023)

Columns and labels:
B7H3-His重组蛋白 = biological target: T1, B7H3-His重组蛋白 (human, UniProt Q5ZPR3 29-466); assay: SPR (Biacore), B7H3-His amine-coupled to CM5 chip, antibody as analyte
T1 construct: extracellular domain; also called 携带His标签的重组B7H3蛋白; not shown: C-terminal His tag
T1 sequence (looked up): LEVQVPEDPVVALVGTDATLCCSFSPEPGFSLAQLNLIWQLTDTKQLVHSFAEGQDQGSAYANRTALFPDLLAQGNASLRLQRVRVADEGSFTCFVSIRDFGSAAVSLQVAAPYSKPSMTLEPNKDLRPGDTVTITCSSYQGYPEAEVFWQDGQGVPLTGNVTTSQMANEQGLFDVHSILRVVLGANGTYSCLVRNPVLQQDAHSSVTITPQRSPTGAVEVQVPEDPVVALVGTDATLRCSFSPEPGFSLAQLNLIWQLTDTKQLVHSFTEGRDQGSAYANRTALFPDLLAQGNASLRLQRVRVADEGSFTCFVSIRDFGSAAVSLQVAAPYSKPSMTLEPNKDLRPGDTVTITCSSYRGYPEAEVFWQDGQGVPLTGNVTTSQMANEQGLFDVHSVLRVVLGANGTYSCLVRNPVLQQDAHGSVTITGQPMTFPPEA

人源B7H3(细胞表面表达) [1] = biological target: T2, 人源B7H3(细胞表面表达) (human, UniProt Q5ZPR3 29-534); assay: flow cytometry on CHO cells stably expressing B7H3
T2 construct: whole, on cells; in the ADCC assay the protein is the endogenous B7H3 of A375 cells; also called CD276; 人B7H3
T2 sequence (looked up): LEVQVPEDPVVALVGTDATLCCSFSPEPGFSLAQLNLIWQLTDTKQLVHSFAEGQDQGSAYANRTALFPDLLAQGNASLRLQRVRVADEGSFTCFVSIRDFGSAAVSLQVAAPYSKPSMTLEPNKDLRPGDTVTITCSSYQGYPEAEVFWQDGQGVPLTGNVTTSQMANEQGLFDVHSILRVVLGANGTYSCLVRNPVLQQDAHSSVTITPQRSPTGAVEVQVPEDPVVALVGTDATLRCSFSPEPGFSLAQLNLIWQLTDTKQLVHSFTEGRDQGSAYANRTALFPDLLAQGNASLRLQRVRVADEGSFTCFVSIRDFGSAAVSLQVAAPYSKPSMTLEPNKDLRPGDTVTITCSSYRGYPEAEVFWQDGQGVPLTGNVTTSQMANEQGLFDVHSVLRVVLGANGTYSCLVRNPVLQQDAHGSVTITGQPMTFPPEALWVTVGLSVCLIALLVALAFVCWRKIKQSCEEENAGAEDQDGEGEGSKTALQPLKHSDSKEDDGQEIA

人源B7H3(细胞表面表达) [2] = biological target: T2, 人源B7H3(细胞表面表达); assay: flow cytometry, hybridoma supernatant on cells expressing B7H3
鼠源B7H3(稳定表达细胞株mB7H3-CHO) = biological target: T3, 鼠源B7H3(稳定表达细胞株mB7H3-CHO) (mouse, UniProt Q8VE98 29-316); assay: flow cytometry, hybridoma supernatant on mB7H3-CHO cells
T3 construct: whole, on cells; also called 鼠B7H3蛋白
T3 sequence (looked up): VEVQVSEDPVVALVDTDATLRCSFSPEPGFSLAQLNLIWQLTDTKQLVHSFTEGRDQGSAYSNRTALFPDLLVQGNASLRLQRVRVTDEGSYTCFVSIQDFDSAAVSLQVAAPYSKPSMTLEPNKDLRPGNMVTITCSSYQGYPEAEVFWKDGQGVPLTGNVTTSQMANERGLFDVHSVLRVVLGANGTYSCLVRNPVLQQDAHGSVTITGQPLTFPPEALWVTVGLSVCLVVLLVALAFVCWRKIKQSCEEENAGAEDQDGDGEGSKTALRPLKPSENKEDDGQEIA

B1: 人源化单抗huJ65-2 (antibody, V domains shown)
VH: EVQLVESGGGLVQPGGSLRLSCEASGFTFSSHGMSWVRQAPGKGLEWVATISGGGRYSYYPDNIQGRFTISRDNAKNSLYLQMNSLRAEDTAVYYCARHWDGYLDYWGQGTLVTVSS
VL: DIQMTQSPSSLSASVGDRVTITCRPSENIYSYLAWYQQKPGKAPKLLVYNAKTLTEGAPSRFSGSGSGTDFTLTISSLQPEDFATYYCQHHYGPPPYTFGQGTKVEIK
notes: also called hJ65-2; 人源化抗体2
binding result (B7H3-His重组蛋白): binds
binding result (人源B7H3(细胞表面表达) [1]): binds

B2: 鼠源单克隆抗体J65(杂交瘤克隆J65上清) (antibody, V domains shown)
VH: EVQLQESGGDLVKPGGSLKLSCEASGFTFSSHGMSWIRQTPDKRLDWVATISGGGRYSYYPDNIQGRFTISRDNAKDTLYLQMSSLQSEDTALYYCARHWDGYLDYWGQGTTLTVSS
VL: DIVMTQTPASLSASVGETVTITCRPSENIYSYLAWYQQKQGKSPQLLVYNAKTLTEGAPSRFSGSGSGTQFSLKINSLQPEDFGIYYCQHHYGPPPYTFGGGTKVEIK
notes: Mouse monoclonal antibody as secreted by the hybridoma (supernatant used in flow cytometry); also called 杂交瘤J65; 单抗J65
binding result (人源B7H3(细胞表面表达) [2]): binds
binding result (B7H3-His重组蛋白): binds
binding result (鼠源B7H3(稳定表达细胞株mB7H3-CHO)): no binding

B3: 嵌合抗体J65(cJ65) (antibody, V domains shown)
VH: EVQLQESGGDLVKPGGSLKLSCEASGFTFSSHGMSWIRQTPDKRLDWVATISGGGRYSYYPDNIQGRFTISRDNAKDTLYLQMSSLQSEDTALYYCARHWDGYLDYWGQGTTLTVSS
VL: DIVMTQTPASLSASVGETVTITCRPSENIYSYLAWYQQKQGKSPQLLVYNAKTLTEGAPSRFSGSGSGTQFSLKINSLQPEDFGIYYCQHHYGPPPYTFGGGTKVEIK
notes: also called cJ65-1
binding result (人源B7H3(细胞表面表达) [1]): binds

B4: 重组鼠源单抗J65(mJ65) (antibody, V domains shown)
VH: EVQLQESGGDLVKPGGSLKLSCEASGFTFSSHGMSWIRQTPDKRLDWVATISGGGRYSYYPDNIQGRFTISRDNAKDTLYLQMSSLQSEDTALYYCARHWDGYLDYWGQGTTLTVSS
VL: DIVMTQTPASLSASVGETVTITCRPSENIYSYLAWYQQKQGKSPQLLVYNAKTLTEGAPSRFSGSGSGTQFSLKINSLQPEDFGIYYCQHHYGPPPYTFGGGTKVEIK
notes: also called 重组鼠单抗mJ65
binding result (人源B7H3(细胞表面表达) [1]): binds
